T1: Cynomolgus TNFR2-His (Sino 90102-C08H) (cynomolgus monkey, UniProt A0A2K5VET2 132-366)
T1 construct: Bought protein; also called cynomolgus monkey TNFR2; recombinant cynomolgus monkey TNFR2 protein; not shown: His tag
T1 sequence: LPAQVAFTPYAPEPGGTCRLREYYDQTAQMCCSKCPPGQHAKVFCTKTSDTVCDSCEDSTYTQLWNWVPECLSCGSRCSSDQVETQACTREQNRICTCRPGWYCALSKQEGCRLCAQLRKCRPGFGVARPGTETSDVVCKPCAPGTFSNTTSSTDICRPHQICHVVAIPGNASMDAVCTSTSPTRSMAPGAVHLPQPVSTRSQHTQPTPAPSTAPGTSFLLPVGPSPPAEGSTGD

T2: Human TNFR2-His (Sino 10417-H08H) (human, UniProt P20333 23-257)
T2 construct: Bought protein; also called recombinant human TNFR2 protein; not shown: His tag
T2 sequence (looked up): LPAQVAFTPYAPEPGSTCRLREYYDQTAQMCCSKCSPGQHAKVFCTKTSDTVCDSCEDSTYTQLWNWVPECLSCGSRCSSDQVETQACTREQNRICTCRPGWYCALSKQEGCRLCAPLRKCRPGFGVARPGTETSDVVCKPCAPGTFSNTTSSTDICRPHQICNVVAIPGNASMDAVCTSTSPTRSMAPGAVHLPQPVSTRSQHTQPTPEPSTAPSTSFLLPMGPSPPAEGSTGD

T3: human TNFR2 (Novoprotein, Cat #C830) (human, UniProt P20333 23-257, limits assumed)
T3 construct: construct not described; also called human TNFR2 protein
T3 sequence (looked up): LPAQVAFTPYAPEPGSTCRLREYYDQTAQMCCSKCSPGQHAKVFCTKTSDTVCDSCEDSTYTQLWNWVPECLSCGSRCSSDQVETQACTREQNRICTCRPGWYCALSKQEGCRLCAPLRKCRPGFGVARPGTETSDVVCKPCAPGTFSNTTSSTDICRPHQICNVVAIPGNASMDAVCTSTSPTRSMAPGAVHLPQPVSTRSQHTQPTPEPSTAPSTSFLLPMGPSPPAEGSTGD


How the values were obtained:
[1] = target: T1, Cynomolgus TNFR2-His (Sino 90102-C08H); test: ELISA, cynomolgus TNFR2-His coated; EC50 against 224-WT
Protocol: (§1) The test humanized antibody against TNFR2 (as described in Example 1, the antibody was comprised of variable regions linked to IgG-Fc; the WT chimeric antibody also adopted the IgG-Fc structure) was subjected to 3.33-fold gradient dilution, loaded with 100 μl/well, and incubated with shaking at room temperature for 1.5 hours. The plate was washed, and then a working solution of murine anti-human IgG Fc-HRP (diluted at 1:10000) was added, loaded with 100 μl/well, and incubated with shaking at room temperature for 1.0 hour. The plate was washed again, and then the substrate TMB of HRP was added to develop colour. A stop solution was added to stop the reaction, and then a microplate reader (MD 13) was used to read the absorbance value. The binding curve of an antibody was drawn with antibody concentration as the abscissa and corresponding OD value as the ordinate, and fitted with four parameters (GraphPad Prism9) to calculate the EC50 value. The smaller the EC50 value, the stronger the binding ability of an antibody to human/cynomolgus monkey TNFR2. The binding effect of a humanized antibody was normalized to its corresponding human-murine chimeric antibody WT (see SEQ ID NOs: 38-43 for the sequence). The higher the percentage value, the better the binding effect of the humanized antibody. The results of binding of an anti-TNFR2 antibody to a human TNFR2 protein are shown in FIG. 1 and Table 4, and the results of binding of an anti-TNFR2 antibody to cynomolgus monkey TNFR2 are shown in FIG. 2 and Table 4.

[2] = target: T2, Human TNFR2-His (Sino 10417-H08H); test: ELISA, human TNFR2-His coated; EC50 against 224-WT
Protocol: as §1

[3] = target: T3, human TNFR2 (Novoprotein, Cat #C830); test: competition ELISA, competitor human TNFα-Biotin; AUC against 224-WT
Protocol: (§2) 1 μg/ml human TNFR2 (Novoprotein, Cat #C830) was pre-coated with 100 μl/well […] in an ELISA plate. All the test TNFR2 antibodies were subjected to 2.5-fold gradient dilution from the highest concentration of 30 μg/ml; the diluted antibodies were mixed with 15 ng/ml human TNFα-Biotin (Acro Biosystem, Cat #TNA-H82E3) in equal volume, respectively; the resulting mixture was added to the ELISA plate at 100 μl/well, and incubated with shaking at room temperature for 2.0 hours. The plate was washed, and then a Streptavidin-HRP working solution (diluted at 1:10000) was added at 100 μl/well, and the mixture was incubated with shaking at room temperature for 40 minutes. The plate was washed again, and then the substrate TMB of HRP was added to develop colour. A stop solution was added to stop the reaction, and then a microplate reader (MD 13) was used to read the absorbance value. The inhibitory curve of an antibody was drawn with antibody concentration as the abscissa and corresponding OD value as the ordinate, and fitted with four parameters (GraphPad Prism9) to calculate the IC50 value. The smaller the IC50 value, the stronger the ability of an antibody to inhibit the binding of human TNFα to human TNFR2. The blocking effect of a humanized antibody was normalized to its corresponding human-murine chimeric antibody WT. The higher the percentage value, the better the inhibitory effect of the humanized antibody.

[4] = target: T3, human TNFR2 (Novoprotein, Cat #C830); test: competition ELISA, competitor human TNFα-Biotin; IC50 against 224-WT
Protocol: as §2

| Binder | % Relative activity (WT antibody/test antibody) [1] [%] | % Relative activity (WT antibody/test antibody) [2] [%] | % Relative activity (WT antibody/test antibody) [3] [%] | % Relative activity (WT antibody/test antibody) [4] [%] |
| --- | --- | --- | --- | --- |
| 224-Hu1 (antibody, V domains shown, Humanized form of #224; also called VH8 + VL6) VH: QVQLVQSGAEVKKPGASVKVSCKASGFNNKDIYMHWVRQAPGQGLEWIGRIDPATGNTKHDPKFQDRVTMTSDTSTNTVYMELSSLRSEDTAVYYCARSPYGDFGAMDYWGQGTLVTVSS VL: DIQMTQSPSSLSASVGDRVTITCTASSSVSSNYLHWYQQKPGKAPKLWIYSTSNLPSGVPSRFSGSGSGTDFTLTISSLQPEDFATYYCHQYHRSPWTFGQGTKVEIK | 105 | 143 | 98.8 | 106 |
| 224-Hu7 (antibody, V domains shown, Humanized form of #224; also called VH9 + VL10) VH: QVQLVQSGSELKKPGASVKVSCKASGFNNKDIYMHWVRQAPGQGLEWMGRIDPATGNTKHDPKFQDKAVLSSDTSVSTAYLQISSLKAEDTAVYYCARSPYGDFGAMDYWGQGTLVTVSS VL: DIQMTQSPSSLSASVGDRVTITCTASSSVSSNYLHWYQQKPGKAPKLLIYSTSNLPSGVPSRFSGSGSGTDFTLTISSLQPEDFATYYCHQYHRSPWTFGQGTKVEIK | 116 | 110 | 100 | 106 |
| 224-Hu3 (antibody, V domains shown, Humanized form of #224; also called VH9 + VL8) VH: QVQLVQSGSELKKPGASVKVSCKASGFNNKDIYMHWVRQAPGQGLEWMGRIDPATGNTKHDPKFQDKAVLSSDTSVSTAYLQISSLKAEDTAVYYCARSPYGDFGAMDYWGQGTLVTVSS VL: DIQMTQSPSSLSASVGDRVTITCTASSSVSSNYLHWYQQKPGKAPKLLIYSTSNLPSGVPSRFSGSGSGTDFTLTISSLQAEDAATYYCHQYHRSPWTFGQGTKVEIK | 108 | 122 | 98.2 | 120 |
| 224-Hu2 (antibody, V domains shown, Humanized form of #224; also called VH9 + VL7) VH: QVQLVQSGSELKKPGASVKVSCKASGFNNKDIYMHWVRQAPGQGLEWMGRIDPATGNTKHDPKFQDKAVLSSDTSVSTAYLQISSLKAEDTAVYYCARSPYGDFGAMDYWGQGTLVTVSS VL: DIQMTQSPSSLSASVGDRVTITCTASSSVSSNYLHWYQQKPGSSPKLWIYSTSNLPSGVPSRFSGSGSGTDFTLTISSLQPEDFATYYCHQYHRSPWTFGQGTKVEIK | 109 | 138 | 102 | 121 |

Further lines, results first:

| % Relative activity (WT antibody/test antibody) [1] [%] | % Relative activity (WT antibody/test antibody) [2] [%] | % Relative activity (WT antibody/test antibody) [3] [%] | % Relative activity (WT antibody/test antibody) [4] [%] | Binder |
| --- | --- | --- | --- | --- |
| 106 | 99.4 | 97.2 | 93.1 | 224-Hu5 (antibody, V domains shown, Humanized form of #224; also called VH9 + VL9) VH: QVQLVQSGSELKKPGASVKVSCKASGFNNKDIYMHWVRQAPGQGLEWMGRIDPATGNTKHDPKFQDKAVLSSDTSVSTAYLQISSLKAEDTAVYYCARSPYGDFGAMDYWGQGTLVTVSS VL: DIQMTQSPSSLSASVGDRVTITCTASSSVSSNYLHWYQQKPGKAPKLLIYSTSNLPSGVPSRFSGSGSGTDYSLTISSLQPEDFATYYCHQYHRSPWTFGQGTKVEIK |
| 108 | 108 | 100 | 105 | 224-Hu4 (antibody, V domains shown, Humanized form of #224; also called VH9 + VL6) VH: QVQLVQSGSELKKPGASVKVSCKASGFNNKDIYMHWVRQAPGQGLEWMGRIDPATGNTKHDPKFQDKAVLSSDTSVSTAYLQISSLKAEDTAVYYCARSPYGDFGAMDYWGQGTLVTVSS VL: DIQMTQSPSSLSASVGDRVTITCTASSSVSSNYLHWYQQKPGKAPKLWIYSTSNLPSGVPSRFSGSGSGTDFTLTISSLQPEDFATYYCHQYHRSPWTFGQGTKVEIK |
| 104 | 104 | 100 | 115 | 224-Hu6 (antibody, V domains shown, Humanized form of #224; also called VH8 + VL7) VH: QVQLVQSGAEVKKPGASVKVSCKASGFNNKDIYMHWVRQAPGQGLEWIGRIDPATGNTKHDPKFQDRVTMTSDTSTNTVYMELSSLRSEDTAVYYCARSPYGDFGAMDYWGQGTLVTVSS VL: DIQMTQSPSSLSASVGDRVTITCTASSSVSSNYLHWYQQKPGSSPKLWIYSTSNLPSGVPSRFSGSGSGTDFTLTISSLQPEDFATYYCHQYHRSPWTFGQGTKVEIK |
